The text below walks through data of patent publication US20200317768A1 (published 2020).

A word on the Kd: it is the free concentration of one partner at which half of the binding sites on the other are occupied at equilibrium, for simple one-to-one binding.

Experiment [1] addresses T1, human FcγRIIaH extracellular domain, C-terminal His-tag (human, UniProt P12318 34-217).
T1 construct: also called human FcγRIIa (type H); FcgRIIaH; not shown: His-tag added to C-terminus
T1 sequence: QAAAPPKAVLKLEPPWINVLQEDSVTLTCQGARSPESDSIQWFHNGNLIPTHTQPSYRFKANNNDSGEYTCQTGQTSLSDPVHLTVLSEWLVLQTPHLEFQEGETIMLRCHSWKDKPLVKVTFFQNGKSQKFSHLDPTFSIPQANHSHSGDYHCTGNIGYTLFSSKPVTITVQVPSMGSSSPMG
Nature of the experiment: SPR (BIACORE), antibody captured, FcγR analyte. How it is done:
(§1) The kinetic analysis of interactions between these antibodies and FcγR was carried out using BIACORE® T200 or BIACORE® 4000 (GE Healthcare). HBS-EP+ (GE Healthcare) was used as the running buffer, and the measurement temperature was set to 25° C. A chip produced by immobilizing Protein A. Protein A/G or mouse anti-human IgG kappa light chain (BD Biosciences) onto a Series S Sensor Chip CM4 or CM5 (GE Healthcare) by the amine-coupling method was used. […] After the measurement, the antibody captured on the chip was washed off by allowing reaction with 10 mM glycine-HCl, pH1.5 and 25 mM NaOH so that the chip was regenerated and used repeatedly. The sensorgrams obtained as measurement results were analyzed by the 1:1 Langmuir binding model using the BIACORE® Evaluation Software to calculate the binding rate constant ka (L/mol/s) and dissociation rate constant kd (l/s), and the dissociation constant KD (mol/L) was calculated from these values. […] Regarding such interactions, KD values were calculated using the following 1:1 binding model described in BIACORE® T100 Software Handbook BR1006-48 Edition AE.
(In SPR one partner is held on a chip, and binding of the other changes the refractive index at the surface.)

Experiment [2] deals with T2, cynomolgus monkey FcγRIIa3 extracellular domain, C-terminal His-tag (cynomolgus monkey).
T2 construct: also called cyno FcγRIIa3; cynoFcgRIIa3; not shown: His-tag added to C-terminus
T2 chain: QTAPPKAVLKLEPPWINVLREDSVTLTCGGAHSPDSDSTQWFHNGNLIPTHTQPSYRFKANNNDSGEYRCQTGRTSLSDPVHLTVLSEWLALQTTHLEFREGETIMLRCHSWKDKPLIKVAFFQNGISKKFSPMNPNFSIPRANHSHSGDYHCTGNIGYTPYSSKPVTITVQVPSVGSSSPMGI
The experiment is described as follows: SPR (BIACORE), antibody captured, FcγR analyte. As to the method: as §1

For experiment [3], the target named is T3, cynomolgus monkey FcγRIIa1 extracellular domain, C-terminal His-tag (cynomolgus monkey).
T3 construct: also called cyno FcγRIIa1; cynoFcgRIIa1; not shown: His-tag added to C-terminus
T3 chain: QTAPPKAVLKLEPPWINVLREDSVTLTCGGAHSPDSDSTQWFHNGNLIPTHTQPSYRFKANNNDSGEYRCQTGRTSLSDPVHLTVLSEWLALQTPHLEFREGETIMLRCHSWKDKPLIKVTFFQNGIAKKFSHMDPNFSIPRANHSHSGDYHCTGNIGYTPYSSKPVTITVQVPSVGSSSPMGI
The experiment is described as follows: SPR (BIACORE), antibody captured, FcγR analyte. As to the method: as §1

Experiment [4] deals with T4, human FcγRIIaR extracellular domain, C-terminal His-tag (human, UniProt P12318 34-217).
T4 construct: also called human FcγRIIa (type R); FcgRIIaR; not shown: His-tag added to C-terminus
T4 chain: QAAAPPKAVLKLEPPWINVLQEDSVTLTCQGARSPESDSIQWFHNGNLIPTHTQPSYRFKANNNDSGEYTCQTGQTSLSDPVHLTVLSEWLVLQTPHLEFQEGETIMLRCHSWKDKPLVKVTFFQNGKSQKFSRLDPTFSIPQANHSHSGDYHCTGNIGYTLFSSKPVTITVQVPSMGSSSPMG
Nature of the experiment: SPR (BIACORE), antibody captured, FcγR analyte. As to the method: as §1

Experiment [5] deals with T5, cynomolgus monkey FcγRIIb extracellular domain, C-terminal His-tag (cynomolgus monkey).
T5 construct: also called cyno FcγRIIb; cynoFcγRIIb; not shown: His-tag added to C-terminus
T5 chain: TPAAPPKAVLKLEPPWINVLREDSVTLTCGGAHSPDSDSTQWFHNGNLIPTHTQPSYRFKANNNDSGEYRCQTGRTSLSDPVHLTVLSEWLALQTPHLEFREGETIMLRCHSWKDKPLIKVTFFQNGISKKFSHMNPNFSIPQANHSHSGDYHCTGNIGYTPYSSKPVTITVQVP
Nature of the experiment: SPR (BIACORE), antibody captured, FcγR analyte. How it is done: as §1

For experiment [6], the target named is T6, human FcγRIIIaV extracellular domain, C-terminal His-tag (human, UniProt P08637 17-208).
T6 construct: also called FcgRIIIaV; not shown: His-tag added to C-terminus
T6 sequence (P08637 17-208 F176V): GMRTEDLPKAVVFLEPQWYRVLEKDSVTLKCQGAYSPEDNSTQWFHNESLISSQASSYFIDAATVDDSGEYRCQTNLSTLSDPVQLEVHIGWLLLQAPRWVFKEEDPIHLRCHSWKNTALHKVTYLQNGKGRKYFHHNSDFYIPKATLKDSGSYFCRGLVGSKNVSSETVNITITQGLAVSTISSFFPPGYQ
The experiment is described as follows: SPR (BIACORE), antibody captured, FcγR analyte. As to the method: as §1

For experiment [7], the target named is T7, cynomolgus monkey FcγRIIIaS extracellular domain, C-terminal His-tag (cynomolgus monkey, UniProt A3RFZ7 21-206 (rhesus entry)).
T7 construct: also called cyno FcγRIIIaS; cynoFcγRIIIaS; not shown: His-tag added to C-terminus
T7 sequence (A3RFZ7 21-206): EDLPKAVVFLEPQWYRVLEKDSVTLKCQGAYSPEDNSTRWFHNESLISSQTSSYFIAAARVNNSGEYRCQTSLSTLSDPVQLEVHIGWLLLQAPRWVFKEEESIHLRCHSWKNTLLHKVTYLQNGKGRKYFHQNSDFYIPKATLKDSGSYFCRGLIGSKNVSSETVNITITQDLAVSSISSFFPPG
Nature of the experiment: SPR (BIACORE), antibody captured, FcγR analyte. As to the method: as §1

For experiment [8], the target named is T8, human FcγRIIb extracellular domain, C-terminal His-tag (human, UniProt P31994 43-217).
T8 construct: also called humanFcgRIIb; not shown: His-tag added to C-terminus
T8 sequence: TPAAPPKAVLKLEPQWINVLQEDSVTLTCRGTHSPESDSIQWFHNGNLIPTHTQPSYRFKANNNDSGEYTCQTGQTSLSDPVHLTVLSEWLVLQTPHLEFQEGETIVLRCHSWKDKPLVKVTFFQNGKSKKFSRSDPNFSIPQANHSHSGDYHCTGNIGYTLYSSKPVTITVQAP
The experiment is described as follows: SPR (BIACORE), antibody captured, FcγR analyte. As to the method: as §1

Experiment [9] has as its target T9, cynomolgus monkey FcγRIIa2 extracellular domain, C-terminal His-tag (cynomolgus monkey).
T9 construct: also called cyno FcγRIIa2; cynoFcgRIIa2; not shown: His-tag added to C-terminus
T9 chain: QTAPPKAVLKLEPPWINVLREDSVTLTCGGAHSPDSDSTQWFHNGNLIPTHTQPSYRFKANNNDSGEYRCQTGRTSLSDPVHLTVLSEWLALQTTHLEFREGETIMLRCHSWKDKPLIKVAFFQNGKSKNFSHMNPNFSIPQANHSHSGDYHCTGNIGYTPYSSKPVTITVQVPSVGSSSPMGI
The experiment is described as follows: SPR (BIACORE), antibody captured, FcγR analyte. How it is done: as §1

In experiment [10] the target is T1, human FcγRIIaH extracellular domain, …. Nature of the experiment: SPR (BIACORE); KD of parent SG1 / KD of variant.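 Further: relative to parent M103205H795-SG1 carrying the SG1 human heavy chain constant region.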 As to the method:
as §1

Experiment [11] deals with T2, cynomolgus monkey FcγRIIa3 …. Nature of the experiment: SPR (BIACORE); KD of parent SG1 / KD of variant.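 Further: relative to parent M103205H795-SG1 carrying the SG1 human heavy chain constant region.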 As to the method: as §1
In experiment [12] the target is T3, cynomolgus monkey FcγRIIa1 …. Nature of the experiment: SPR (BIACORE); KD of parent SG1 / KD of variant.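 Further: relative to parent M103205H795-SG1 carrying the SG1 human heavy chain constant region.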 As to the method: as §1
The target in experiment [13] is T4, human FcγRIIaR extracellular domain, …. The experiment is described as follows: SPR (BIACORE); KD of parent SG1 / KD of variant.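 Further: relative to parent M103205H795-SG1 carrying the SG1 human heavy chain constant region.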 How it is done:
as §1

The target of experiment [14] is T5, cynomolgus monkey FcγRIIb extracellular …. The experiment is described as follows: SPR (BIACORE); KD of parent SG1 / KD of variant. How it is done:
as §1

The target in experiment [15] is T6, human FcγRIIIaV extracellular domain, …. Nature of the experiment: SPR (BIACORE); KD of parent SG1 / KD of variant. How it is done:
as §1

The target of experiment [16] is T7, cynomolgus monkey FcγRIIIaS …. Nature of the experiment: SPR (BIACORE); KD of parent SG1 / KD of variant. How it is done: as §1
For experiment [17], the target named is T8, human FcγRIIb extracellular domain, …. The experiment is described as follows: SPR (BIACORE); KD of parent SG1 / KD of variant. As to the method:
as §1

Experiment [18] has as its target T9, cynomolgus monkey FcγRIIa2 …. The experiment is described as follows: SPR (BIACORE); KD of parent SG1 / KD of variant. As to the method:
as §1

B1: MS_M103240H795-SG1/M103202L1045-SK1 (antibody, human IgG1, kappa)
heavy: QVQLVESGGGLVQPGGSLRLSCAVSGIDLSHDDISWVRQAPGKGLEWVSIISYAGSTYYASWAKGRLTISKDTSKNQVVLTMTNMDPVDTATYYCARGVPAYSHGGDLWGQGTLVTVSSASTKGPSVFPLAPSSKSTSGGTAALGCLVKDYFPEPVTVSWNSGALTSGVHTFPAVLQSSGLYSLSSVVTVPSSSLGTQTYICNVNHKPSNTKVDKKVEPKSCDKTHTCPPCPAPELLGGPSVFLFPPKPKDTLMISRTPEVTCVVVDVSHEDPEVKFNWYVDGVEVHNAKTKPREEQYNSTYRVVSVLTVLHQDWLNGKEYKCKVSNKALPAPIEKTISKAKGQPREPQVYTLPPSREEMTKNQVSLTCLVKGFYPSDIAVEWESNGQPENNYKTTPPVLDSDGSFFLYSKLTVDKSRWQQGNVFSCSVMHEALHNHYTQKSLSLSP
light: DIVMTQSPATLSLSPGERATLSCTTSQSVYHENWLSWFQQKPGQPPKLLIYWASTLAYGVPSRFSGSGSGTDFTLTISSLQPEDAATYYCAGGYGGGRYAFGQGTKVEIKRTVAAPSVFIFPPSDEQLKSGTASVVCLLNNFYPREAKVQWKVDNALQSGNSQESVTEQDSKDSTYSLSSTLTLSKADYEKHKVYACEVTHQGLSSPVTKSFNRGEC
notes: Parent of the MS1032LO19 Fc variants; also called MS1032LO19-SG1; MS103240H795-SG1
In the case of B1, the Kd stood at 970 nM in [1]; 6.6 µM in experiment [2]; 8.8 µM in [3]; 960 nM in experiment [4]; 1700 nM in [5]; 0.58 µM in experiment [6]. The values for the Kd in experiment [7], in [8] and in experiment [9] were 0.26 µM, 3800 nM and 4100 nM, respectively. Further, the “KD fold (SG1 = 1)” value in experiment [10], in experiment [11], in [12], in experiment [13], in experiment [14] and in experiment [15] was 1 fold in each case. The “KD fold (SG1 = 1)” value in experiment [16], in experiment [17] and in experiment [18] was 1 fold each time.

B2: M103240H795-SG1071 / M103202L1045-SK1 (antibody)
heavy: QVQLVESGGGLVQPGGSLRLSCAVSGIDLSHDDISWVRQAPGKGLEWVSIISYAGSTYYASWAKGRLTISKDTSKNQVVLTMTNMDPVDTATYYCARGVPAYSHGGDLWGQGTLVTVSSASTKGPSVFPLAPSSKSTSGGTAALGCLVKDYFPEPVTVSWNSGALTSGVHTFPAVLQSSGLYSLSSVVTVPSSSLGTQTYICNVNHKPSNTKVDKKVEPKSCDKTHTCPPCPAPELLNGPSVFLFPPKPKDTLMISRTPEVTCVVVDVSDEDPEVKFNWYVDGVEVHNAKTKPREELYNSTYRVVSVLTVLHRDWLNGKEYKCKVSNKALPKPIEKTISKAKGQPREPQVYTLPPSREEMTKNQVSLTCLVKGFYPSDIAVEWESNGQPENNYKTTPPVLDSDGSFFLYSKLTVKKSRWQQGNVFSCSVLHEALHAHTTRKELSLSP
light: DIVMTQSPATLSLSPGERATLSCTTSQSVYHENWLSWFQQKPGQPPKLLIYWASTLAYGVPSRFSGSGSGTDFTLTISSLQPEDAATYYCAGGYGGGRYAFGQGTKVEIKRTVAAPSVFIFPPSDEQLKSGTASVVCLLNNFYPREAKVQWKVDNALQSGNSQESVTEQDSKDSTYSLSSTLTLSKADYEKHKVYACEVTHQGLSSPVTKSFNRGEC
notes: CH with G236N/H268D/Q295L/Q311R/A330K/D413K/M428L/N434A/Y436T/Q438R/S440E against SG1 (EU numbering); also called MS1032LO19-SG1071
With B2, the Kd came to 690 nM in [1]; 2.1 µM in experiment [2]; 1.2 µM in experiment [3]; 1200 nM in [4]; 530 nM in experiment [5]; 14 µM in experiment [6]. The Kd in [7] turned out to be 5.8 µM; in experiment [8], 680 nM; in experiment [9], 1500 nM. Further, the “KD fold (SG1 = 1)” value in experiment [10] came to 1.4 fold; in experiment [11], 3.1 fold; in experiment [12] it was 3 fold; in experiment [13], 0.8 fold; in experiment [14], 5.3 fold; in [15], 0.04 fold. For the same molecule, the “KD fold (SG1 = 1)” value in experiment [16] is 0.07 fold; in experiment [17] it was 5.6 fold; in [18] it was 3.2 fold.
